In PMC8751089, “Photobiocatalytic Oxyfunctionalization with High Reaction Rate using a Baeyer–Villiger Monooxygenase from Burkholderia xenovorans in Metabolically Engineered Cyanobacteria” (ACS Catalysis, 2021):

Key:
[1] = tested on: T1, BVMOXeno; test: steady-state kinetics, NADPH consumption; format: biochemical, Paraburkholderia xenovorans; conditions: co-substrates NADPH and O2; 50 mM Tris-HCl, pH 8, 25 °C
T1 construct: gene BVMO_Xeno; purified enzyme, recombinant (E. coli); tag details only in supplement
From the text: steady-state kinetics, NADPH consumption on BVMOXeno

[2] = tested on: O=C1CCCCC1; test: purified protein; conditions: co-substrates NADPH and O2, 50 mM Tris-HCl, pH 8, 25 °C

Molecule	Km [1] [µM]	Km [2] [µM]	kcat [2] [s⁻¹]	kcat/Km [2] [M⁻¹ s⁻¹]
O=C1CCCCC1 [1a, cyclohexanone]	22.7 ± 5	–	–	–
CHMOAcineto (Acinetobacter johnsonii)	–	266.6 ± 25.5	4.54 ± 0.095	17000 ± 1670
